According to US20240368230A1, “CELL-PENETRATING PEPTIDES COMPRISING MULTIPLE 5-MER ALPHA-HELIX FRAGMENTS AND USES THEREOF” (ArtProBio Co., Ltd., priority 2023, published 2024):

B1: ZsGreen: green fluorescent protein, expressed from bacterial cells, used as a comparative example (protein)
chain: MAQSKHGLTKEMTMKYRMEGCVDGHKFVITGEGIGYPFKGKQAINLCVVEGGPLPFAEDILSAAFMYGNRVFTEYPQDIADYFKNSCPAGYTWDRSFLFEDGAVCICNADITVSVEENCMYHESKFYGVNFPADGPVMKKMTDNWEPSCEKIIPVPKQGILKGDVSMYLLLKDGGRLRCQFDTVYKAKSVPRKMPDWHFIQHKLTREDRSDAKNQKWHLTEHAIASGSALP
B2: CPP22-ZsGreen: fusion protein wherein CPP22 is fused with the ZsGreen protein (protein)
chain: GSHMASAAAQARRNAAAQARRNAAAQARRNAAAQARRNAAAQARRNAAAGSGSGSGSGPVATMAQSKHGLTKEMTMKYRMEGCVDGHKFVITGEGIGYPFKGKQAINLCVVEGGPLPFAEDILSAAFMYGNRVFTEYPQDIADYFKNSCPAGYTWDRSFLFEDGAVCICNADITVSVEENCMYHESKFYGVNFPADGPVMKKMTDNWEPSCEKIIPVPKQGILKGDVSMYLLLKDGGRLRCQFDTVYKAKSVPRKMPDWHFIQHKLTREDRSDAKNQKWHLTEHAIASGSALP
B3: CRGGDEDALKAARAIKFLYQSNPPPNPEGTRQARRNRRRRWRERQRQIHSASERIASTLGGMRM (protein)
chain: CRGGDEDALKAARAIKFLYQSNPPPNPEGTRQARRNRRRRWRERQRQIHSASERIASTLGGMRM
modifications: cyclized via intein; The peptide is circular.
notes: cyclic, oligomerization-defective Rev N-terminal domain protein made by intein-mediated cyclization

Assays:
[1] = tested on: HeLa cells; assay: Flow cytometry of intracellular delivery of ZsGreen cargo; assay type: cell-based; conditions: Hela cells, 10, 20 or 50 μM, 4 hours
Experimental: Hela cells were inoculated onto a 24-well plate (10^5 cells/well) and cultured in a DMEM medium containing 10% FBS for 24 hours. After washing with PBS, the cells were treated with ZsGreen or the CPP22-ZsGreen fusion protein at 0, 10, 20 or 50 μM for 4 hours. Then, after washing the cells twice with PBS and incubating with trypsin (1 mg/mL) for 15 minutes, the peptides bound to the cell surface were removed. The cells were centrifuged at 1,200 rpm for 5 minutes, washed twice with PBS, and then suspended in a PBS buffer containing 10% non-enzymatic cell dissociation solution. The fluorescence intensity of the internalized peptide was measured using a BD LSR II flow cytometer (BD Biosciences, USA).

[2] = tested on: HeLa cells; assay: Confocal microscopy of intracellular delivery of ZsGreen cargo; assay type: cell-based; conditions: 50 μM, 30 minutes
Experimental: A DMEM medium containing 10% FBS was prepared on an 8-well Lab-Tek II chamber slide (Thermo Fisher Scientific, USA). Hela cells were dispensed in each well at a density of 10^4 cells/well and cultured for 24 hours. The cells were washed twice with PBS and then cultured for 30 minutes after replacing the medium with one containing 50 μM of the ZsGreen or the CPP22-ZsGreen fusion protein. The cells were washed with PBS, treated with DAPI, and then washed with PBS after reaction for 5 minutes (for observation of cell nuclei). Then, the stained cells were observed by confocal microscopy.

[3] = target: IIB RNA; assay: Fluorescence anisotropy analysis of cRev with Cy3-labeled IIB RNA; assay type: binding, HIV-1; conditions: Cy3-IIB RNA 250 nM, room temperature, pH 6.0; read-out: Kd (dissociation constant) for the interaction with IIB RNA
Experimental: IIB RRE labeled with […] Cy3 was dissolved in a binding buffer (25 mM sodium phosphate, 50 mM NaCl, pH 6.0). The peptide (sample) of various concentrations was sequentially added to 250 nM RNA. The final concentration of the peptide was 600 nM. After the mixing, the sample was incubated for 1 minute. There was 1-minute incubation time between all the steps. All the experiments were performed at room temperature. The dissociation constant (Kd) was calculated using the Origin software.
In order to analyze the function of cRev, the cRev of Preparation Example 2 was mixed with Cy3-labeled IIB RNA and then fluorescence anisotropy analysis was performed.

[4] = tested on: wild-type IIB (RRE IIB WT); assay: EMSA with 32P-labeled wild-type IIB and mutant IIB; assay type: binding, HIV-1
Experimental: A peptide (sample) and ^32P-labeled RNA were mixed with a binding buffer (10 mM HEPES (pH 7.5), 100 mM KCl, 1 mM MgCl2, 0.5 mM EDTA, 10% glycerol and […] yeast tRNA). After serially diluting the peptide with the binding buffer, RNA (10 pM) of the same volume was added. The resulting mixture was incubated at room temperature for 30 minutes and electrophoresis was conducted at 4° C. on 10% polyacrylamide gel. The […] was visualized with FLA-7000 Phosphor Imager (GE Healthcare Life Sciences, USA) and analyzed using the Multi Gauge software.
In order to analyze the binding affinity of cRev for IIB RNA, the /Rev of Preparation Example 1 or the cRev of Preparation Example 2 was mixed with ^32P-labeled wild-type IIB and ^32P-labeled mutant IIB, respectively, and analyzed by EMSA (electrophoretic mobility shift assay). The mutation of IIB is the mutation in the G46-C74 base pairs of wild-type IIB.

Row | Molecule | intracellular delivery (flow cytometry) [1] | intracellular delivery (confocal microscopy) [2] | Kd [3] | binding affinity for wild-type IIB compared with /Rev ([4]; wild-type IIB (RRE IIB WT)) | recognition of IIB RNA (EMSA) ([4]; wild-type IIB versus mutant IIB)
1 | B1 | no intracellular delivery was observed | not delivered into the cells |  |  | 
2 | B2 | delivered to and accumulated in the cells at a significantly high level | successfully delivered into and accumulated in the cells at a significant level |  |  | 
3 | B3 |  |  | 34 nM | significantly higher binding affinity | specifically recognizes IIB RNA
